Where a chain is given by its changes, count along the chain named. One block for each molecule: values may come before it.
Key:
[1] = target: Human EphA2-Fc fusion protein (human EphA2 fused with the Fc portion of a human IgG1) (human) (UniProt P29317); experiment: single point ELISA: 1 ug goat anti-human Fd capture, biotinylated human EphA2-Fc 300-600 ng/well, neutravidin-HRP
[2] = target: Human EphA2-Fc fusion protein (human EphA2 fused with the Fc portion of a human IgG1) (human) (UniProt P29317); experiment: single point ELISA: periplasmic Fab captured on 500 ng goat anti-human Fab, biotinylated human EphA2-Fc 300 ng/well, neutravidin-HRP
[3] = target: Human EphA2-Fc fusion protein (human EphA2 fused with the Fc portion of a human IgG1) (human) (UniProt P29317); experiment: SPR (BIAcore), human IgG1 format on immobilized EphA2-Fc
[4] = target: Human EphA2-Fc fusion protein (human EphA2 fused with the Fc portion of a human IgG1) (human) (UniProt P29317); experiment: SPR (BIAcore 3000), EphA2-Fc amine-coupled to CM5 chip, IgG in solution, 25 C, 1:1 Langmuir fit
[5] = target: Human EphA2-Fc fusion protein (human EphA2 fused with the Fc portion of a human IgG1) (human) (UniProt P29317); experiment: SPR (BIAcore 3000), EphA2-Fc amine-coupled to CM5 chip, IgG in solution, 25 C, KD = koff/kon
[6] = target: T1, Human EphA2-Fc fusion protein (human EphA2 fused with the Fc portion of a human IgG1) (human, UniProt P29317 24-534, limits assumed); experiment: SPR (BIAcore 3000), EphA2-Fc amine-coupled to CM5 chip (about 500 RU), IgG in solution, 25 C, 1:1 Langmuir fit
T1 construct: also called biotinylated human EphA2-Fc; not shown: Fc portion of a human IgG1
T1 sequence (P29317 24-534 limits assumed): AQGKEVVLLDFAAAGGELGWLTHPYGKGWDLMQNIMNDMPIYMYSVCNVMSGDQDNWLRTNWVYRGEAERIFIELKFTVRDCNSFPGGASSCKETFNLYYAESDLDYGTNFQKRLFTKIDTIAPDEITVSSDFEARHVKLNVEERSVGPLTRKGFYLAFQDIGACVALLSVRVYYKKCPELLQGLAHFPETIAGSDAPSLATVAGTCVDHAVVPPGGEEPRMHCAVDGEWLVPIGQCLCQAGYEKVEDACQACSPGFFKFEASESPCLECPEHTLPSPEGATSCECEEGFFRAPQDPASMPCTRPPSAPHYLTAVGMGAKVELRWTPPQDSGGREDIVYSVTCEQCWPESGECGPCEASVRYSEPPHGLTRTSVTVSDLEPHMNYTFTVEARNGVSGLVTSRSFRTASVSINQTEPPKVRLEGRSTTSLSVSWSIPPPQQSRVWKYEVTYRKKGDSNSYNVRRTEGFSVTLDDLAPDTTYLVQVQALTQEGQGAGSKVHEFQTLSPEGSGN

[7] = target: T1, Human EphA2-Fc fusion protein (human …); experiment: SPR (BIAcore 3000), EphA2-Fc amine-coupled to CM5 chip (about 500 RU), IgG in solution, 25 C, KD = koff/kon
[8] = target: Human EphA2-Fc fusion protein (human EphA2 fused with the Fc portion of a human IgG1) (human) (UniProt P29317); experiment: single point ELISA: periplasmic Fab captured on 1 ug goat anti-human Fd, biotinylated human EphA2-Fc 300-600 ng/well, neutravidin-HRP
[9] = target: Human EphA2-Fc fusion protein (human EphA2 fused with the Fc portion of a human IgG1) (human) (UniProt P29317); experiment: second single point ELISA: periplasmic extract of 15 ml culture, 1 ug/well goat anti-human Fd capture, biotinylated EphA2-Fc
[10] = target: Human EphA2-Fc fusion protein (human EphA2 fused with the Fc portion of a human IgG1) (human) (UniProt P29317); experiment: single point ELISA: periplasmic extract of 45 ml culture, 1 ug/well goat anti-human Fd capture, biotinylated EphA2-Fc
[11] = target: Human EphA2-Fc fusion protein (human EphA2 fused with the Fc portion of a human IgG1) (human) (UniProt P29317); experiment: SPR (BIAcore 3000), EphA2-Fc amine-coupled to CM5 chip (about 500 RU), IgG in solution, 25 C, 1:1 Langmuir fit
[12] = target: Human EphA2-Fc fusion protein (human EphA2 fused with the Fc portion of a human IgG1) (human) (UniProt P29317); experiment: SPR (BIAcore 3000), EphA2-Fc amine-coupled to CM5 chip (about 500 RU), IgG in solution, 25 C, KD = koff/kon

Chain of Human EphA2-Fc fusion protein (human EphA2 fused with the Fc portion of a human IgG1) (human) (P29317 24-534 limits assumed): as above

Molecule: irrelevant antibody (Example 2)
OD450 (background signal) [1]: 0.3 OD450

B1: Fab clone VH-6H11/VL-8G7 (Fab, from another filing, V domains shown)
VH: EVQLVESGGGLVQPGGSLRLSCAASGFTFSDYSMNWVRQAPGKGLEWVAFIRNKANDYTTEYSASVKGRFTISRDNSKNTLYLQMNSLRAEDTAMYYCARYPRYHAMDSWGQGTLVTVSS
VL: EIVLTQSPATLSVSPGERATLSCRASQSISNNLHWYQQKPGKAPKSLIYYVFQSISGVPSRFSGSGSGTDFTLTINSLEAEDAATYYCQQSNSWPLTFGGGTKVDIK
OD450 [2]: 2.5 OD450

B2: VH-6H11/VL-8G7 as full length human IgG1 (antibody, from another filing, V domains shown)
VH: B1 VH
VL: B1 VL
fold decrease of avidity against parental mAb B233 [3]: 6 fold
koff [4]: 0.00018 s⁻¹
kon [4]: 96000 M⁻¹ s⁻¹
Kd [5]: 1.9 nM

B3: mAb EA2 (murine anti-human EphA2 monoclonal antibody) (antibody, V domains shown)
VH: DVKLVESGGGLVKPGGSLKLSCAASGFTFSSYTMSWVRQTPEKRLEWVATISSGGTYTYYPDSVKGRFTISRDNAKNTLYLQMSSLKSEDTAMYYCTREAIFTYWGQGTLVTVSA
VL: DIKMTQSPSSMYASLGERVTITCKASQDINNYLSWFQQKPGKSPKTLIYRANRVDGVPSRFSGSGSGQDYSLTISSLEYEDMGIYYCLKYDEFPYTFGGGTKLEIK
koff [6]: 0.00307 s⁻¹
kon [6]: 517000 M⁻¹ s⁻¹
Kd [7]: 5.94 nM

B8: VH-4H5/VL-"corrected" 4H5 as human IgG1 (antibody, from another filing, V domains shown)
VH: QVQLLESGGGLVQPGGSLRLSCAASGFTFSSYTMSWVRQAPGQALEWMGTISSGGTYTYYPDSVKGRFTISRDNAKNSLYLQMNSLRAEDTAVYYCAREAIFTYWGRGTLVTVSS
VL: DIQLTQSPSSLSASVGDRVTITCKASQDINNYLSWYQQKPGQAPRLLIYRANRLVDGVPDRFSGSGYGTDFTLTINNIESEDAAYYFCLKYDEFPYTFGQGTKVEIK
koff [11]: 0.00105 s⁻¹
kon [11]: 750000 M⁻¹ s⁻¹
fold increase of avidity against parental mAb EA2 [3]: 4 fold
Kd [12]: 1.4 nM

Further lines, results first:

OD450 [2]: 2.8 OD450
B4: Fab clone VH-2G6/VL-12C8 (Fab, from another filing, V domains shown)
VH: EVQLVESGGGVVRPGGSLRLSCAASGFTVSDYSMNWVRQAPGKGLEWIGFIRNKANDYTTEYSASVKGRFTISRDDSKNTLYLQMNSLKTEDTAVYYCTTYPRYHAMDSWGQGTMVTVSS
VL: AIQLTQSPSSLSASVGDRVTITCRASQSISNNLHWYLQKPGQSPQLLIYYVFQSISGVPSRFSGSGSGTDFTLTISSLQPEDFATYYCQQSNSWPLTFGGGTKLEIK

fold decrease of avidity against parental mAb B233 [3]: 10 fold
koff [4]: 0.00019 s⁻¹
kon [4]: 64000 M⁻¹ s⁻¹
Kd [5]: 3 nM
B5: VH-2G6/VL-12C8 as full length human IgG1 (antibody, from another filing, V domains shown)
VH: B4 VH
VL: B4 VL

fold increase of avidity against parental mAb EA2 [3]: 90 fold
B6: VH-4H5/VL-4H5 as human IgG1 (antibody, from another filing, V domains shown)
VH: B8 VH
VL: B8 VL with E93V

OD450 [8]: 3 OD450
fold signal above background of the irrelevant antibody [8]: 10 fold
[specific OD450/background OD450] ratio [9]: 30
[specific OD450/background OD450] ratio [10]: 23
B7: Fab clone 4H5 (VH-4H5/VL-4H5) (Fab, from another filing, V domains shown)
VH: B8 VH
VL: B8 VL with E93V

[specific OD450/background OD450] ratio [10]: 11
B9: Fab "corrected" clone 4H5 (VH-4H5/VL-"corrected" 4H5) (Fab, from another filing, V domains shown)
VH: B8 VH
VL: B8 VL

— EP1869192B1 (MedImmune, LLC, dated 2016)
